Experimental data: the DeepSol protein solubility set

Assay: soluble on expression in E. coli; label from the status in PepcDB or PDB records

| Sequence | soluble on expression in E. coli |
| --- | --- |
| MSLEAKQTKKSLPLRSEIPVEETWRLEDIFPTDEAWEQEFQEVKKMIPKLAEYQGRLGESADVLYEALQYQDEVSMRLGKLYTYAHMRYDQDTTNAFYQGLNDRATSLYSEASSAMAFIVPEILAIDEVKLRSFLEEKQELKLYEHALDEINRQRPHVLSAEEEALLAQAAEVMQSSSSTFSMLNNADLTFPTIIDENGEEVEVTHGRFIRFLESTDRRVRRDAFKAVYDTYEKYKNTFASTLAGTVKKDNFFARVRRYKSAREAALSSNNIPESVYDNLIETVHEHLPLLHRYVRLRKKVLGLDELHMYDLYTPLVQDVKMEVTYEEAKEYMLKALAPLGEEYISIVKEGLENRWVDVRENKGKRSGAYSSGAYGTHPYILLNWQDNVNNLFTLVHEFGHSVHSYYTRKTQPYPYANYSIFVAEVASTCNEALLNDYLLKTMDEEKKRLYLLNHYLEGFRGTVFRQTMFAEFEHMIHIKAQEGEALTADSLTSLYYELNKKYFGDDIVVDQEIGLEWARIPHFYYNYYVYQYATGFSAATALSKQILEEGEPAVKRYIEFLKAGSSDYPIEVLKKAGVDMTSAEPIRQACQVFAEKLEEMENLLSEGHHHHHH | soluble |
| MSLAMQDFRPGVYRHYKGDHYLALGLARADETDEVVVVYTRLYARAGLPMSTRLLRIWNETVDTGAGPQPRFAYVGHVTPEQGEGHHHHHH | soluble |
| MGSDKIHHHHHHLNILVTNDDGIMSPGIILLAEALSEDHEVLVVAPDVERSATGHAITIRTPLWAKEVKVGNKNIGYAINGTPADCVKLGLLAISDRKIDLVISGVNKGQNMGIDVLYSGTVSGALEGAVTDTPSIAVSSSDWSNPEYETAARFMVNFLKIYDVSKMPDFTALNINVPSIKYEELKGWKVTRQSRRRYKDYFEKRKDPYGNNYYWIFGEVVEDECSTDCDFNAVKSNFVSITPLHAIMTDKKYFDELKEISEGWSE | not soluble |
| RSYGPVFEEQPAHTLFPEGSAEEKVTLTCRARANPPATYRWKMNGTELKMGPDSRYRLVAGDLVISNPVKAKDAGSYQCVATNARGTVVSREASLRFGFLQEFSAEERDPVKITEGWGVMFTCSPPPHYPALSYRWLLNEFPNFIPADGRRFVSQTTGNLYIAKTEASDLGNYSCFATSHIDFITKSVFSKFSQLSLAAEDARQYAPSIKAKFPADTYALTGQMVTLECFAFGNPVPQIKWRKLDGSQTSKWLSSEPLLHIQNVDFEDEGTYECEAENIKGRDTYQGRIIIHAQPDWLDVITDTEADIGSDLRWSCVASGKPRPAVRWLRDGQPLASQNRIEVSGGELRFSKLVLEDSGMYQCVAENKHGTVYASAELTVQA | soluble |
| MGLCVSVNRNEYVSSSTTAKIVTINGDLREYDVPVLASQVLESESTSSSSSSSSSSYFLCNSDSLYYDDFIPAIESDEILQANQIYFVLPISKRQYRLSASDMAALAVKASVAIEKAAGKKNRRRRSGRISPVVTLNQANDNRIAAVNNRIGGEATNMMMQKGKLPNRTTPFKDTNGYSRSGSVRKLKRYTSGRAKLAVRSFRLRLSTIYEGSSFN | not soluble |
| MGSDKIHHHHHHMMKSNENNGAVTKSFAKKMESISPFELKNKLIEMADESIKKIAHTMLNAGRGNPNWIATTPREAFFLLGKFGLEECRRVMYLPEGIAGIPQKDGIAARFETFLKTNHSQPGAELLKGTYQYMLLEHAADPDTLVHEWAEGVVGDQYPVPDRILQFTEMIVQDYLAQEMCDRRPPKGKYDLFATEGGTAAMCYVFDSLQENFLLNKGDGIALMVPVFTPYIEIPQLRRYEFNVTEISADQMTTDGLHTWQYKDEDIDRLRNPQIKALFITNPSNPPSYTLSPETAARIVDIVKKDNPNLMIITDDVYGTFSPHFRSLMAELPQNTLCVYSFSKYFGATGWRDAVIALHEENIFDRMIAHLPEEQKTILNKRYSSLTLTPEKLKFIDRMVADSRQVALNHTAGLSLPQQTQMSLFASFAILDKENRYKNKMQEIIRRRLKALWDNTGFSLVDDPLRVGYYSEIDMLVWAKIFYGEEFVSYLKKTYSPLDVVFRLANETSLVLLNGGGFAGPEWSVRVSLANLNEKDYVKIGQGIKRILDEYAVKWQESRK | not soluble |
| MSLVRMRVGKFDYLNNFLPYYFLNEKVEIVEANPREMASMLLSGRIDYAPVPAFFYLKNRERLRHYEFCVASEGKVLSVVVVSRKKELDDGSIAVTPHSLTSVNLLKILLAERGMKNMLVEVNTAKASEMLELCPHALVIGDEAIKARMIYKVVMDLGEEWYELTSLPAVFGISASLKETNAEEMDRKILMATEEGYRRFDEVVRAAEKAFKMPREFLEEYFRTLKFRLSSKERRGLDEFEKYCRDYGLLEEGHHHHHH | not soluble |
